Test results published in PMC8860611.

Target: HIV-1 CA A14C/E45C/W184A/M185A (pET11a-CA (A14C, E45C, W184A and M185A)), assembled into soluble cross-linked hexamers (HIV-1)
Test: cross-linking

HIV-1 CA A14C/E45C/W184A/M185A (pET11a-CA (A14C, E45C, W184A and M185A)), assembled into soluble cross-linked hexamers (natural protein)
stoichiometry N: 6
